Source: US20070218064A1 (published 2007)

T1: recombinant human IL-23 (hrIL-23), produced at Centocor (human, UniProt P29460 23-328)
T1 sequence 1: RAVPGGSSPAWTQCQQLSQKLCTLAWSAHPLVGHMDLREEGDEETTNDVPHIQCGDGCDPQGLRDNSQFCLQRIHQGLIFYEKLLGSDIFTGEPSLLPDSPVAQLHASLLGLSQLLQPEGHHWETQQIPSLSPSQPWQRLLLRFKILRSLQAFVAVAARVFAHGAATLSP
T1 sequence 2: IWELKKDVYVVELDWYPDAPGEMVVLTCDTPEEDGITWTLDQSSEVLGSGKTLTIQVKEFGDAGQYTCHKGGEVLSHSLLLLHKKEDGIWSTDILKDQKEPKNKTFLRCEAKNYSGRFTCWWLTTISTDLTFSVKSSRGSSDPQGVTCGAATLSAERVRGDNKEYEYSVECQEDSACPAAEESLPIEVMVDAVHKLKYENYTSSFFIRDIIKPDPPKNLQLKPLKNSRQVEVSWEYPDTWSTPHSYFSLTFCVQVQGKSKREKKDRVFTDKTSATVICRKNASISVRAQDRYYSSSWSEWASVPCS


Target: T1, recombinant human IL-23 (hrIL-23), …
Assay: cell-based or functional assay

| Inhibition of IL-17 production, IC50 [ng/mL] | Binder |
| --- | --- |
| 2.85 | mAb MOR05058 (antibody, IgG1, V domains shown) VH: QVELVQSGAEVKKPGESLKISCKGSGYSFSNYWIGWVRQMPGKGLEWMGIIDPSNSYTNYSPSFQGQVTISADKSISTAYLQWSSLKASDTAMYYCARWYYKPFDVWGQGTLVTVSS VL: DIVLTQPPSVSGAPGQRVTISCTGSSSNIGSGYDVHWYQQLPGTAPKLLIYGNSKRPSGVPDRFSGSKSGTSASLAITGLQSEDEADYYCSSWTPVFGGGTKLTVL |
| 10.6 | mAb MOR05059 (antibody, IgG1, V domains shown) VH: QVELVQSGAEVKKPGESLKISCKGSGYSFSNYWIGWVRQMPGKGLEWMGIIDPSNSYTNYSPSFQGQVTISADKSISTAYLQWSSLKASDTAMYYCARWYYKPFDVWGQGTLVTVSS VL: DIVLTQPPSVSGAPGQRVTISCTGSSSNIGSGYDVHWYQQLPGTAPKLLIYGNSKRPSGVPDRFSGSKSGTSASLAITGLQSEDEADYYCSWTSVVFGGGTKLTVL |
| 2.64 | mAb MOR05040 (antibody, IgG1, V domains shown) VH: QVELVQSGAEVKKPGSSVKVSCKASGGTFSSNYISWVRQAPGQGLEWMGAYAQKFQGRVTITADESTSTAYMELSSLRSEDTAVYYCARSKKGMYGGWTYPLMMFDLWGQGTLVTVSS VL: not shown |
| 1.27 | mAb MOR05042 (antibody, IgG1, V domains shown) VH: QVELVQSGAEVKKPGESLKISCKGSGYSFSNYWIGWVRQMPGKGLEWMGIIPSTYSPSFQGQVTISADKSISTAYLQWSSLKASDTAMYYCARWYYKPFDVWGQGTLVTVSS VL: DIVLTQPPSVSGAPGQRVTISCTGSSSNIGSGYDVHWYQQLPGTAPKLLIYGNSKRPSGVPDRFSGSKSGTSASLAITGLQSEDEADYYCSSWTPSSVVFGGGTKLTVL |
| 14.1 | mAb MOR05044 (antibody, IgG1, V domains shown) VH: QVELVQSGAEVKKPGESLKISCKGSGYSFSNYWIGWVRQMPGKGLEWMGIIPSSTYSPSFQGQVTISADKSISTAYLQWSSLKASDTAMYYCARWYYKPFDVWGQGTLVTVSS VL: DIVLTQPPSVSGAPGQRVTISCTGSSSNIGSGYDVHWYQQLPGTAPKLLIYGNSKRPSGVPDRFSGSKSGTSASLAITGLQSEDEADYYCSSWTPSSVVFGGGTKLTVL |
| 3.01 | mAb MOR05041 (antibody, IgG1, V domains shown) VH: QVELVQSGAEVKKPGESLKISCKGSGYSFSNYWIGWVRQMPGKGLEWMGIIPSTYSPSFQGQVTISADKSISTAYLQWSSLKASDTAMYYCARWYYKPFDVWGQGTLVTVSS VL: DIVLTQPPSVSGAPGQRVTISCTGSSSNIGSGYDVHWYQQLPGTAPKLLIYGNSKRPSGVPDRFSGSKSGTSASLAITGLQSEDEADYYCSSWTPSSVVFGGGTKLTVL |
| 1.4 | mAb MOR05045 (antibody, IgG1, V domains shown) VH: QVELVQSGAEVKKPGESLKISCKGSGYSFSNYWIGWVRQMPGKGLEWMGIIPSTYSPSFQGQVTISADKSISTAYLQWSSLKASDTAMYYCARWYYKPFDVWGQGTLVTVSS VL: DIVLTQPPSVSGAPGQRVTISCTGSSSNIGSGYDVHWYQQLPGTAPKLLIYGNSKRPSGVPDRFSGSKSGTSASLAITGLQSEDEADYYCSSWTPSSVVFGGGTKLTVL |
| 3.23 | mAb MOR05054 (antibody, IgG1, V domains shown) VH: QVELVESGGGLVQPGGSLRLSCAASGFTFSSFGMSWVRQAPGKGLEWVSITYASVKGRFTISRDNSKNTLYLQMNSLRAEDTAVYYCARYWGTPYLMQFDNWGQGTLVTVSS VL: DIALTQPASVSGSPGQSITISCTGTSSDVGGYNSVSWYQQHPGKAPKLMIYSVSSRPSGVSNRFSGSKSGNTASLTISGLQAEDEADYYCSSYDTNKPLVVFGGGTKLTVL |
| 4.93 | mAb MOR05053 (antibody, IgG1, V domains shown) VH: QVELVESGGGLVQPGGSLRLSCAASGFTFSSFGMSWVRQAPGKGLEWVSNITYYASVKGRFTISRDNSKNTLYLQMNSLRAEDTAVYYCARYWGTPYLMQFDNWGQGTLVTVSS VL: DIALTQPASVSGSPGQSITISCTGTSSDVGGYNSVSWYQQHPGKAPKLMIYSVSSRPSGVSNRFSGSKSGNTASLTISGLQAEDEADYYCSSYDTNKPLVVFGGGTKLTVL |
